Laboratory results as given in PMC11615322 (Nature Communications, 2024).

Molecular target: GST-Keap1 (human, UniProt Q14145 1-624)
Test: pull-down

GST-Keap1, sequence (Q14145 whole entry): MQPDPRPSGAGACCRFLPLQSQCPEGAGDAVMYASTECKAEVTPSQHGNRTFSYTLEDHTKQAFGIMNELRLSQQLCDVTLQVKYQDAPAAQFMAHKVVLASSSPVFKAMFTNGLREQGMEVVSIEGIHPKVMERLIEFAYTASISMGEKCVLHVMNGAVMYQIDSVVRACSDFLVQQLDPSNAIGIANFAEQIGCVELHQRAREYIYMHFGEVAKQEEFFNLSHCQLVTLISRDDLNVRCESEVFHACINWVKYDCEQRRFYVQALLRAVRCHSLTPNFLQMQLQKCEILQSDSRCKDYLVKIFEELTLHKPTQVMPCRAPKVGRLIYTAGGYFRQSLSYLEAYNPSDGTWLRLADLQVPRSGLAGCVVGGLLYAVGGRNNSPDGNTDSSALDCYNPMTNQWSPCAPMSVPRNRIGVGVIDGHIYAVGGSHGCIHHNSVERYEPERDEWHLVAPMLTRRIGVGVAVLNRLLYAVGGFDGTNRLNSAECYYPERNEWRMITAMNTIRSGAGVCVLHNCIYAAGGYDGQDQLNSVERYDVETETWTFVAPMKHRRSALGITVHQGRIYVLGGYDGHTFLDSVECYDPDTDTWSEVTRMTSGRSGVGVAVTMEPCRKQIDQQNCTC

- binding result: binds
B1: His-SRX (natural protein)
chain: not shown
